{"source": "patent US9290544B2", "about": "“Methods for making and using molecular switches involving circular permutation” (priority 2004, dated 2016)", "molecules": {"B1": {"name": "BLA: penicillin-hydrolyzing enzyme TEM1 β-lactamase, parent enzyme of the switches (protein, UniProt P62593 24-286, looked up)", "Beta-lactamase TEM": "HPETLVKVKDAEDQLGARVGYIELDLNSGKILESFRPEERFPMMSTFKVLLCGAVLSRVDAGQEQLGRRIHYSQNDLVEYSPVTEKHLTDGMTVRELCSAAITMSDNTAANLLLTTIGGPKELTAFLHNMGDHVTRLDRWEPELNEAIPNDERDTTMPAAMATTLRKLLTGELLTLASRQQLIDWMEADKVAGPLLRSALPAGWFIADKSGAGERGSRGIIAALGPDGKPSRIVVIYTTGSQATMDERNRQIAEIGASLIKHW"}}, "key": {"[1]": {"assay": "Nitrocefin hydrolysis in soluble fraction of cell lysates with and without 5 mM maltose (screen and confirmation of positives)", "type": "biochemical", "conditions": "50 μM nitrocefin; 5 mM maltose; 100 mM sodium phosphate buffer, pH 7.0", "procedure": "Next, 50 μl of PopCulture (Novagen) and 2.5 unit of benzonase nuclease was added to each well and incubated for 15 minutes at room temperature to lyse the cells. The cells debris and any unlysed cells were pelleted by centrifugation and supernatant was recovered. In 96-well format, 60 μl of lysate was assayed for hydrolysis of nitrocefin (50 μM) by monitoring the increase in absorbance at 490 nm in 100 mM sodium phosphate buffer, pH 7.0, both with and without 5 mM maltose. Any lysate in which there was a difference in rate of more than 2-fold (between with and without maltose) was selected for retesting and further investigation.\nLibrary members identified as having more than 200% switching activity in the 96-well plate screen were grown 24-48 hours in 100 ml LB media in 500 ml shaker flasks at 22° C. without IPTG. The cells were pelleted and resuspended in 8 ml assay buffer (100 mM sodium phosphate buffer, pH 7.0) and lysed by French press. The soluble fraction of this lysate was assayed for hydrolysis of nitrocefin (50 μM) at 22° C. as previously described (Guntas and Ostermeier 2004) both with and without 5 mM maltose. Initial rates were determined from absorbance at 486 nm monitored as a function of time. The enzyme was incubated at the assay temperature in the absence or presence of 5 mM maltose for four minutes prior to performing the assay. All assays contained 100 mM sodium phosphate buffer, pH 7.0. Library members for which there was a difference in the initial rate of more than about 2-fold were sequenced (Table 4). Switches RG-5-169 and RG-200-13 were also assayed in the presence of 5 mM sucrose or 5 mM glucose."}, "[2]": {"assay": "Magnitude of switching in soluble fraction of cell lysates, Libraries 2-7 (FIG. 13)", "type": "biochemical", "conditions": "room temperature, 50 μM nitrocefin", "procedure": "Libraries were plated on LB plates containing […] at the indicated concentrations of ampicillin and incubated at 37° C. overnight. From these plates, colonies were picked to inoculate 1 ml LB media (supplemented with 50 μg/ml chloramphenicol and 1 mM IPTG) in 96-well format. Lysates from these cultures were assayed for nitrocefin hydrolysis activity in the presence and absence of maltose as described above.\nLibraries 2-7 were plated on different levels of ampicillin in the presence of 50 mM maltose. Colonies that grew were used to inoculate 96-well plates. The resulting cultures were lysed and assayed at room temperature for nitrocefin hydrolysis in the presence and absence of maltose in 96-well format.\nFIG. 13 is a schematic depiction of the library construction schemes for Libraries 2-7, and of particular switches identified from these libraries. The arrowheads indicate the sites of insertion. Multiple arrowheads on one gene indicate random insertion sites. Dashed arrows indicate a particular switch on which successive libraries were based. The magnitude of switching was determined on the soluble fraction of cell lysates at room temperature using 50 μM nitrocefin. For switches with a rate increase in the presence of maltose, the ratio is of “with maltose” to “without maltose” (indicated by no sign in front of the value). […]"}, "[3]": {"assay": "Apparent dissociation constant for maltose from initial rate of nitrocefin hydrolysis", "type": "binding", "conditions": "25° C.", "procedure": "[formula] where ΔF is the change in fluorescence intensity, ΔFmax is the difference in fluorescence between no maltose and saturating amounts of maltose and [L] is the maltose concentration. The fluorescence quenching of RG13(1329W/A96W) upon addition of maltose was insufficient to accurately determine a Kd by this method. The dissociation constant for maltose and RG13(I329W) in the presence of saturating carbenicillin (2 mM) was determined by measuring the initial rate of carbenicillin hydrolysis as a function of maltose concentration. The apparent dissociation constant in the presence of subsaturating concentrations of nitrocefin (25 μM) for all three proteins was determined by measuring the initial rate of nitrocefin hydrolysis as a function of maltose concentration."}, "[4]": {"assay": "Steady state kinetics of nitrocefin hydrolysis, purified RG13 proteins, 25° C.", "type": "biochemical", "conditions": "for Km / kcat: nitrocefin", "procedure": "All kinetic assays were performed at 25° C. in the presence of 100 mM sodium phosphate buffer, pH 7.0. Ten μl of enzyme stock was added to 1.59 ml buffer (containing the saccharide, if desired). After incubation for 30 seconds, 0.4 ml of 5× substrate was added and the absorbance at the appropriate wavelength was recorded using the Cary50 UV-VIS spectrophotometer. The wavelength monitored was 486 nm, 240 nm, and 232 nm for nitrocefin, carbenicillin, and ampicillin respectively. From the initial rate of reaction the kinetic constants were determined using Eadie-Hofstee plots. […] The rate data was consistent with a small hysteretic effect (Brennan et al. 1994) and not substrate inhibition as preincubation of the enzyme with the substrate for one minute prevented the lag from occurring upon addition of more substrate. Therefore, the steady state parameters for nitrocefin hydrolysis in the absence of maltose were determined by measuring the rate at 1-2 minutes (well after the lag) and correcting the substrate concentration by subtracting the amount of substrate hydrolyzed. In all cases the extent of reaction at the point the rate was measured was less than 25%. In the presence of maltose, no lag was observed."}, "[5]": {"tested_on": "DH5α-E cells", "assay": "In vivo characterization: MIC of ampicillin for DH5α-E cells expressing the protein", "type": "cell-based, E. coli", "conditions": "LB plates, 37° C., 20 hours", "procedure": "Overnight inoculums of DH5α-E cells expressing RG13, BLA or BLA(W208G) were diluted into LB media and plated on LB plates, either in the absence or presence of 50 μM maltose, in the presence of increasing amounts of ampicillin. Ampicillin was present in the plates at the following concentrations: 0, 2, 4, 8, 16, 32, 64, 128, 256, 512, and 2000 μg/ml. Cells were plated at approximately 1000 CFU (no antibiotic) per plate. The plates were incubated at 37° C. for 20 hours. The minimum inhibitory concentration (MIC) was defined as the lowest ampicillin concentration at which no colonies were present, or that at which the number of colonies present was <1% of the number of colonies at the next lowest level of ampicillin."}, "[6]": {"conditions": "cited from earlier work"}, "[7]": {"conditions": "effector maltose 5 mM (saturating)"}, "[8]": {"conditions": "effector maltose 5 mM (saturating), 25° C."}}, "note": "Where two headings read alike, the source gives them in different places."}
{"molecule": "IFD-5-7: MBP[1-165]-BLA[110-286]-DKS-BLA[24-107]-MBP[164-370]; SEQ ID NO: 67", "values": [{"measurement": "Switching effect: percent change in velocity of nitrocefin hydrolysis in the presence of 5 mM maltose", "setting": "[1]", "value": "+96%"}]}
{"molecule": "IFD-5-15: MBP[1-165]-BLA[168-286]-DKS-BLA[24-170]-MBP[164-370]; SEQ ID NO: 71", "values": [{"measurement": "Switching effect: percent change in velocity of nitrocefin hydrolysis in the presence of 5 mM maltose", "setting": "[1]", "value": "+97%"}]}
{"molecule": "IFG-5-277: MBP[1-165]-BLA[218-286]-GSGGG-BLA[24-215]-MBP[164-370]; maltose is a negative effector; SEQ ID NO: 69", "values": [{"measurement": "Switching effect: percent change in velocity of nitrocefin hydrolysis in the presence of 5 mM maltose", "setting": "[1]", "value": "−250", "unit": "%"}, {"measurement": "Effect of maltose on catalytic activity (magnitude of switching)", "setting": "[2]", "value": "negative effector"}]}
{"molecule": "RG13 I329W/A96W: RG13 with MBP hinge mutations I329W and A96W; SEQ ID NO: 65", "values": [{"measurement": "Kd", "setting": "[3]", "value": "170 ± 20", "unit": "nM"}, {"measurement": "Km Ratio (with effector)/(without effector)", "setting": "[4]; effector maltose 5 mM", "value": "0.23 ± 0.04"}, {"measurement": "kcat Ratio (with effector)/(without effector)", "setting": "[4]; [7]", "value": "1.5 ± 0.2"}, {"measurement": "kcat/Km Ratio (with effector)/(without effector)", "setting": "[4]; [7]", "value": "6.4 ± 1.3"}, {"measurement": "Km", "setting": "[4]; [8]", "value": "60 ± 4", "unit": "µM"}, {"measurement": "kcat", "setting": "[4]; [8]", "value": "530 ± 20", "unit": "s⁻¹"}, {"measurement": "Km", "setting": "[4]; no effector, pH 7.0, 25° C.", "value": "260 ± 40", "unit": "µM"}, {"measurement": "kcat", "setting": "[4]; no effector, pH 7.0, 25° C.", "value": "360 ± 40", "unit": "s⁻¹"}]}
{"molecule": "B1", "values": [{"measurement": "Minimum Inhibitory Concentration of Ampicillin", "setting": "[5]; 50 μM maltose", "value": "≧2000 μg/ml"}, {"measurement": "Minimum Inhibitory Concentration of Ampicillin", "setting": "[5]; No maltose", "value": "≧2000 μg/ml"}, {"measurement": "kcat", "setting": "[6]; previously reported for BLA at 24° C. (Sigal et al. 1984)", "value": 900, "unit": "s⁻¹"}, {"measurement": "Km", "setting": "[6]; previously reported for BLA at 24° C. (Sigal et al. 1984), read-out: Km", "value": 110, "unit": "µM"}, {"measurement": "kcat", "setting": "[6]; previously reported, 30° C. (Raquet et al. 1994)", "value": 930, "unit": "s⁻¹"}, {"measurement": "Km", "setting": "[6]; previously reported, 30° C. (Raquet et al. 1994), read-out: Km", "value": 52, "unit": "µM"}, {"measurement": "Km", "setting": "[6]; substrate ampicillin (Raquet et al. 1994), read-out: Km for TEM-1 β-lactamase", "value": 32, "unit": "µM"}, {"measurement": "Km", "setting": "[6]; substrate benzylpenicillin (Raquet et al. 1994), read-out: Km for TEM-1 β-lactamase", "value": 19, "unit": "µM"}, {"measurement": "Km", "setting": "[6]; substrate cephalothin (Raquet et al. 1994), read-out: Km for TEM-1 β-lactamase", "value": 246, "unit": "µM"}, {"measurement": "Km", "setting": "[6]; substrate oxacillin (Raquet et al. 1994), read-out: Km for TEM-1 β-lactamase", "value": 3, "unit": "µM"}, {"measurement": "Effect of maltose on wild type BLA enzymatic activity", "setting": "[6]; with or without an equimolar amount of MBP (Guntas et al. 2004)", "value": "no effect"}]}
